Measurements: patent US20220177587A1, “METHODS AND USES OF VARIANT CD80 FUSION PROTEINS AND RELATED CONSTRUCTS” (Alpine Immune Sciences, Inc., priority 2018, published 2022)

Experiments:
CD28 [1] = biological target: T1, CD28 (Homo sapiens, UniProt P10747); test: Flow binding to Jurkat/IL2 reporter cells (CD28); set-up: host or cells: Jurkat cells expressing an IL-2-luciferase reporter
Procedure, shortened: (§1)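 Fusion proteins bound to CHO cells stably expressing CTLA4 or PD-L1, or to Jurkat/IL2 reporter cells with endogenous CD28, for 45 min on ice after blocking in PBS/1% BSA. Detection with PE anti-human Fc by flow cytometry; PE MFI per cell type and binding EC50 determined.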

huPD-L1 = huPD-L1 (Homo sapiens, UniProt Q9NZQ7); test: Flow binding to CHO cells stably expressing PD-L1; set-up: huCTLA4 and huPD-L1, full-length mammalian surface expression constructs were generated; expressed in transfected cells; host or cells: CHO cells, lentiviral transduction, sorted to >98% purity; conditions: for PD-L1 MFI at 33.3 nM: CHO cells stably expressing PD-L1; for Ratio of PDL1:CD28: ratio of MFI at 33.3 nM
Procedure, shortened: as §1

CD28 [2] = biological target: T1, CD28; test: Jurkat/IL2 + CHO/OKT3 +/- PD-L1 reporter assay: PD-L1-dependent CD28 costimulation; assay type: cell-based; set-up: host or cells: Jurkat cells expressing an IL-2-luciferase reporter; conditions: 5.0 nM
Procedure, shortened: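 Jurkat reporter cells (100,000/well) preincubated 15 min at room temperature with test protein, then cocultured 5 h at 37 °C with CHO aAPCs bearing anti-CD3 scFv (OKT3) with or without PD-L1. Luciferase luminescence (RLU) read after lysis-substrate addition.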

huCTLA4 = huCTLA4 (Homo sapiens, UniProt P16410); test: Flow binding to CHO cells stably expressing CTLA4; set-up: huCTLA4 and huPD-L1, full-length mammalian surface expression constructs were generated; expressed in transfected cells; host or cells: CHO cells, lentiviral transduction, sorted to >98% purity; conditions: for CTLA4 MFI at 33.3 nM: CHO cells stably expressing CTLA4
Procedure, shortened: as §1

human pan T cells = test: Anti-CD3 coimmobilization assay, IFN-gamma; assay type: cell-based; conditions: Table E34; culture supernatant, 3 days
Procedure: Costimulatory bioactivity of CD80 fusion variants was determined in anti-CD3 coimmobilization assays. 1 nM or 4 nM mouse anti-human CD3 (OKT3, Biolegends, USA) was diluted in PBS with 1 nM to 80 nM rCD80.Fc variant proteins. This mixture was added to tissue culture treated flat bottom 96-well plates (Corning, USA) overnight to facilitate adherence of the stimulatory proteins to the wells of the plate. The next day, unbound protein was washed off the plates and 100,000 purified human pan T cells (BenTech Bio, US) or human T cell clone BC3 (Astarte Biologics, USA) were added to each well in a final volume of 200 μl of Ex-Vivo 15 media (Lonza, Switzerland). Cells were cultured 3 days before harvesting culture supernatants and measuring human IFN-gamma levels with Duoset ELISA kit (R&D Systems, USA) as described above.

[3] = Table E23, CD80 IgV-Fc (inert) at 33.3 nM, Jurkat (CD28)
[4] = Table E23, MFI at 33.3 nM relative to CD80 WT IgV-Fc
[5] = Table E23, CD80 IgV-Fc (inert) at 33.3 nM
[6] = Table E24, Jurkat/IL2 + CHO/OKT3/PD-L1
[7] = Table E25, linker variants, 33.3 nM, Jurkats (CD28)
[8] = Table E25, linker variants, 33.3 nM
[9] = Table E26, linker variants, Jurkat/IL2 + CHO/OKT3/PD-L1
[10] = Table E25, linker variants, relative to CD80 WT IgV-Fc

Chain of huPD-L1 (Q9NZQ7 19-290): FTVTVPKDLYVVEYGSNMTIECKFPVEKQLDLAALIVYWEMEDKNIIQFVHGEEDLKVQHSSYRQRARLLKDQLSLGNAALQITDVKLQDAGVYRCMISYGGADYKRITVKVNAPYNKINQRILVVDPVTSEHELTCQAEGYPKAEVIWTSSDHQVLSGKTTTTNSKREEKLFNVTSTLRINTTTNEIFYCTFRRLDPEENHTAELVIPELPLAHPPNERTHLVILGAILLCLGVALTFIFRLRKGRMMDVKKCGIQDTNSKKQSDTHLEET
Chain of huCTLA4 (P16410 36-223): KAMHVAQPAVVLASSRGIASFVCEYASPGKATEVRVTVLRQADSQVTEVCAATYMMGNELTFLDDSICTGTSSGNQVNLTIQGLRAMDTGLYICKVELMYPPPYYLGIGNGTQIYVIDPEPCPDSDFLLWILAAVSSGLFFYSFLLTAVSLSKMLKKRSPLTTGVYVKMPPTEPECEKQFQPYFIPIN

Molecule | CD28 MFI at 33.3 nM (CD28 [1]; [7]) | PD-L1 MFI at 33.3 nM (huPD-L1; [8]) | Ratio of PDL1:CD28 (huPD-L1; Table E25, linker variants) | Fold Increase over WT CD80-IgV-Fe (CD28 [2]; Table E26, linker variants) | Relative Luciferase Units (RLU), CD80 Conc 5.0 nM (CD28 [2]; [9]) [RLU] | CTLA4 MFI at 33.3 nM (huCTLA4; [8]) | Anti-CD3 IFN-gamma Coimmobilization Assay (human pan T cells) [pg/mL] | further results
H18V/A26Q/E35D/M47V/V68L/A71G/D90G (protein, UniProt P33681 35-288, looked up, variant H18V A26Q E35D M47V V68L A71G D90G) T-lymphocyte activation …: VIHVTKEVKEVATLSCGVNVSVEELQQTRIYWQKDKKMVLTMMSGDVNIWPEYKNRTIFDITNNLSILILGLRPSDEGTYECVVLKYEKGAFKREHLAEVTLSVKADFPTPSISDFEIPTSNIRRIICSTSGGFPEPHLSWLENGEELNAINTTVSQDPETELYAVSSKLDFNMTTNHSFMCLIKYGHLRVNQTFNWNTTKQEHFPDNLLPSWAITLISVNGIFVICCLTYCFAPRCRERRRNERLRRESVRPV |  |  |  |  |  |  |  | CD28 MFI at 33.3 nM (CD28 [1]; [3]): 3126; CD28 Fold change to WT CD80 (CD28 [1]; [4]): 30.6; PD-L1 MFI at 33.3 nM (huPD-L1; [5]): 33597; PD-L1 Fold change to WT CD80 (huPD-L1; [4]): 203.6; Ratio of PDL1:CD28 (huPD-L1; Table E23): 10.7; Fold Increase over WT CD80-IgV-Fe (CD28 [2]; [6]): 4.6; Relative Luciferase Units (RLU), CD80 Conc 5.0 nM (CD28 [2]; [6]): 795 RLU; CTLA4 MFI at 33.3 nM (huCTLA4; [5]): 17654; CTLA4 Fold change to WT CD80 (huCTLA4; [4]): 12.8
H18F/A26N/E35D/M47V/V68M/A71G/D90K (protein, UniProt P33681 35-288, looked up, variant H18F A26N E35D M47V V68M A71G D90K) T-lymphocyte activation …: VIHVTKEVKEVATLSCGFNVSVEELNQTRIYWQKDKKMVLTMMSGDVNIWPEYKNRTIFDITNNLSIMILGLRPSDEGTYECVVLKYEKKAFKREHLAEVTLSVKADFPTPSISDFEIPTSNIRRIICSTSGGFPEPHLSWLENGEELNAINTTVSQDPETELYAVSSKLDFNMTTNHSFMCLIKYGHLRVNQTFNWNTTKQEHFPDNLLPSWAITLISVNGIFVICCLTYCFAPRCRERRRNERLRRESVRPV |  |  |  |  |  |  |  | CD28 MFI at 33.3 nM (CD28 [1]; [3]): 3170; CD28 Fold change to WT CD80 (CD28 [1]; [4]): 31.1; PD-L1 MFI at 33.3 nM (huPD-L1; [5]): 22395; PD-L1 Fold change to WT CD80 (huPD-L1; [4]): 135.7; Ratio of PDL1:CD28 (huPD-L1; Table E23): 7.1; Fold Increase over WT CD80-IgV-Fe (CD28 [2]; [6]): 5.4; Relative Luciferase Units (RLU), CD80 Conc 5.0 nM (CD28 [2]; [6]): 919 RLU; CTLA4 MFI at 33.3 nM (huCTLA4; [5]): 15206; CTLA4 Fold change to WT CD80 (huCTLA4; [4]): 11.0
E35D/M47V/N48K/V68M/K89N delta (protein) VIHVTKEVKEVATLSCGHNVSVEELAQTRIYWQKDKKMVLTMMSGDVKIWPEYKNRTIFDITNNLSIMILALRPSDEGTYECVVLKYENDAFKREHLAEVTLSVKTHTCPPCPAPEAEGAPSVFLFPPKPKDTLMISRTPEVTCVVVDVSHEDPEVKFNWYVDGVEVHNAKTKPREEQYNSTYRVVSVLTVLHQDWLNGKEYKCKVSNKALPAPIEKTISKAKGQPREPQVYTLPPSREEMTKNQVSLTCLVKGFYPSDIAVEWESNGQPENNYKTTPPVLDSDGSFFLYSKLTVDKSRWQQGNVFSCSVMHEALHNHYTQKSLSLSPG | 4678 | 20442 | 4 | 2.63 | 1026 | 3091 |  | 
E35D/M47V/N48K/V68M/K89N EAAAK (protein, UniProt P33681 35-288, looked up, variant E35D M47V N48K V68M K89N, EAAAK linker) T-lymphocyte activation …: VIHVTKEVKEVATLSCGHNVSVEELAQTRIYWQKDKKMVLTMMSGDVKIWPEYKNRTIFDITNNLSIMILALRPSDEGTYECVVLKYENDAFKREHLAEVTLSVKADFPTPSISDFEIPTSNIRRIICSTSGGFPEPHLSWLENGEELNAINTTVSQDPETELYAVSSKLDFNMTTNHSFMCLIKYGHLRVNQTFNWNTTKQEHFPDNLLPSWAITLISVNGIFVICCLTYCFAPRCRERRRNERLRRESVRPV | 2634 | 22862 | 9 | 4.38 | 1707 | 27516 |  | CD28 Fold change to WT CD80 (CD28 [1]; [10]): 47.1; PD-L1 Fold change to WT CD80 (huPD-L1; [10]): 490.6; CTLA4 Fold change to WT CD80 (huCTLA4; [10]): 23.0
E35D/D46V/M47L/V68M/L85Q/E88D delta (protein) VIHVTKEVKEVATLSCGHNVSVEELAQTRIYWQKDKKMVLTMMSGVLNIWPEYKNRTIFDITNNLSIMILALRPSDEGTYECVVQKYDKDAFKREHLAEVTLSVKTHTCPPCPAPEAEGAPSVFLFPPKPKDTLMISRTPEVTCVVVDVSHEDPEVKFNWYVDGVEVHNAKTKPREEQYNSTYRVVSVLTVLHQDWLNGKEYKCKVSNKALPAPIEKTISKAKGQPREPQVYTLPPSREEMTKNQVSLTCLVKGFYPSDIAVEWESNGQPENNYKTTPPVLDSDGSFFLYSKLTVDKSRWQQGNVFSCSVMHEALHNHYTQKSLSLSPG | 4173 | 22538 | 5 | 2.77 | 1079 | 12177 |  | 
E35D/D46V/M47L/V68M/L85Q/E88D (EAAAK)3 (protein, UniProt P33681 35-288, looked up, variant E35D D46V M47L V68M L85Q E88D, (EAAAK)3 linker) T-lymphocyte activation …: VIHVTKEVKEVATLSCGHNVSVEELAQTRIYWQKDKKMVLTMMSGVLNIWPEYKNRTIFDITNNLSIMILALRPSDEGTYECVVQKYDKDAFKREHLAEVTLSVKADFPTPSISDFEIPTSNIRRIICSTSGGFPEPHLSWLENGEELNAINTTVSQDPETELYAVSSKLDFNMTTNHSFMCLIKYGHLRVNQTFNWNTTKQEHFPDNLLPSWAITLISVNGIFVICCLTYCFAPRCRERRRNERLRRESVRPV | 197 | 25461 | 129 | 5.25 | 2046 | 32048 |  | CD28 Fold change to WT CD80 (CD28 [1]; [10]): 3.5; PD-L1 Fold change to WT CD80 (huPD-L1; [10]): 546.4; CTLA4 Fold change to WT CD80 (huCTLA4; [10]): 26.8
H18L, R29D, Y31L, Q33H, K36G, M38I, T41A, M43R, M47T, E81V, L85R, K89N, A91T, F92P, K93V, R94L, E99D, T130A (protein) VIHVTKEVKEVATLSCGLNVSVEELAQTDILWHKEGKIVLAMRSGDTNIWPEYKNRTIFDITNNLSIVILALRPSDEGTYVCVVRKYENDTPVLEHLADVTLSVKADFPTPSISDFEIPTSNIRRIICSASGGFPEPHLSWLENGEELNAINTTVSQDPETELYAVSSKLDFNMTTNHSFMCLIKYGHLRVNQTFNWNTTKQEHFPDN |  |  |  |  |  |  | 174 | 
H18L, R29D, Y31L, Q33H, K36G, M38I, T41A, M43R, M47T, L70Q, E81V, L85R, K89N, A91T, F92P, K93V, R94L, I118V, T120S, T130A, K169E (protein) VIHVTKEVKEVATLSCGLNVSVEELAQTDILWHKEGKIVLAMRSGDTNIWPEYKNRTIFDITNNLSIVIQALRPSDEGTYVCVVRKYENDTPVLEHLAEVTLSVKADFPTPSISDFEVPSSNIRRIICSASGGFPEPHLSWLENGEELNAINTTVSQDPETELYAVSSELDFNMTTNHSFMCLIKYGHLRVNQTFNWNTTKQEHFPDN |  |  |  |  |  |  | 232 | 
R29D, Y31L, Q33H, K36G, M38I, T41A, M43R, M47T, L70Q, E81V, L85R, K89N, A91T, F92P, K93I, R94L, L97R, T130A (protein) VIHVTKEVKEVATLSCGHNVSVEELAQTDILWHKEGKIVLAMRSGDTNIWPEYKNRTIFDITNNLSIVIQALRPSDEGTYVCVVRKYENDTPILEHRAEVTLSVKADFPTPSISDFEIPTSNIRRIICSASGGFPEPHLSWLENGEELNAINTTVSQDPETELYAVSSKLDFNMTTNHSFMCLIKYGHLRVNQTFNWNTTKQEHFPDN |  |  |  |  |  |  | 202 | 
